The results in this text go back to the RNAGym collection of RNA variant scans (doi:10.7554/elife.80360).

The chains are these.
B1: Twister Ribozyme (parent)
chain: AACACUGCCAAUGCCGGUCCCAAGCCCGGAUAAAAGUGGAGGGGGCGG

Variants of B1 are the subject of this series. Nature of the series: self-cleavage, relative activity (ratio to wild type); higher = more cleavage; co-transcriptional.
For the variant C25U C46U, the self-cleavage worked out at 0.75.

Consider A35U G38U, for which the self-cleavage came to 0.942.

For the variant A4C G42C, the self-cleavage was 0.125.

A2G C26A: the self-cleavage stood at 0.134.

As for C21U A30U, the self-cleavage was found to be 0.141.

A32C G43A: the self-cleavage is 0.242.

Consider A2G C27A, for which the self-cleavage came out at 0.0876.

Turning to U37A G44C, the self-cleavage amounted to 0.821.

For A2U G41U, the self-cleavage was 0.157.

For G36U A40C, the self-cleavage amounted to 0.122.

As for G28A A35C, the self-cleavage came to 0.793.

As to A1U A11C, the self-cleavage was 0.0741.

On to A33U A34G, for which the self-cleavage turned out to be 0.76.

On to G36U G45U, for which the self-cleavage was 0.315.

C3U G36U: the self-cleavage was determined as 0.064.

For C8A C9G, the self-cleavage stood at 0.122.

G24C C27U: the self-cleavage was determined as 0.0994.

Consider C5G G45A, for which the self-cleavage is 0.475.

In the case of G17C U37C, the self-cleavage was 0.0657.

Regarding G36C G44A, the self-cleavage amounted to 0.7.

For G17U G36U, the self-cleavage was 0.0806.

A1U C15A: the self-cleavage was determined as 0.0603.

Consider A10U G41U, for which the self-cleavage was determined as 0.61.

Turning to A2C G36U, the self-cleavage is 0.0783.

As for C25A U37C, the self-cleavage was determined as 0.0999.

For the variant A11U C26U, the self-cleavage is 0.69.

In the case of C14G G43A, the self-cleavage was 0.0789.

In the case of U18A A33C, the self-cleavage was determined as 0.247.

As for G13U C46G, the self-cleavage was found to be 0.328.

In the case of C27A G39A, the self-cleavage was 0.128.

In the case of A22G G28A, the self-cleavage worked out at 0.128.

On to A40U G42U, for which the self-cleavage was 0.15.

For A4G C19A, the self-cleavage came to 0.0929.

Take A34U G42C: the self-cleavage amounted to 0.217.

In the case of C21U G44C, the self-cleavage worked out at 0.0722.

Consider G39A G42C, for which the self-cleavage was 0.12.

Turning to G24A G45U, the self-cleavage is 0.118.

As for G13U C26A, the self-cleavage was 0.129.

Turning to C9G A10G, the self-cleavage came out at 0.656.

On to U6G C26U, for which the self-cleavage is 0.0975.

With G38C A40G, the self-cleavage turned out to be 0.134.

Turning to U18C C46U, the self-cleavage was determined as 0.599.

On to A2G G41U, for which the self-cleavage came to 0.0697.

Turning to U31G G39U, the self-cleavage came out at 0.203.

As to A40G G48A, the self-cleavage came to 0.193.

With U12A C15G, the self-cleavage was 0.17.

With A40U, the self-cleavage came to 0.158.

A22G G42A: the self-cleavage worked out at 0.0942.

In the case of C14G G29A, the self-cleavage was found to be 0.182.

Regarding A2G U12G, the self-cleavage was found to be 0.252.

Turning to C9U C14U, the self-cleavage amounted to 0.596.

On to C9U G42A, for which the self-cleavage was 0.153.

On to G13A G45A, for which the self-cleavage turned out to be 0.724.

G13C G29U: the self-cleavage was determined as 0.46.

Take C15G G36C: the self-cleavage worked out at 0.0921.

As to U12G C46A, the self-cleavage worked out at 0.706.

For U18A C20A, the self-cleavage worked out at 0.0667.

In the case of C9G G43U, the self-cleavage turned out to be 0.134.

As for C5U C21G, the self-cleavage amounted to 0.0614.

In the case of A10C G44C, the self-cleavage was determined as 0.867.

Turning to A4G U6G, the self-cleavage is 0.074.

For the variant G24A G42C, the self-cleavage stood at 0.0923.

On to C15A G28C, for which the self-cleavage came out at 0.757.

Consider G7A C8U, for which the self-cleavage came to 0.0616.

Take C5A G13A: the self-cleavage came out at 0.132.

Consider G13U A23U, for which the self-cleavage is 0.0818.

As to U18C A22G, the self-cleavage amounted to 0.0724.

Regarding G13A G44A, the self-cleavage was found to be 1.04.

Consider A2U A33C, for which the self-cleavage came to 0.457.

As for G16U C19A, the self-cleavage was determined as 0.284.

Take C21A G24A: the self-cleavage was 0.0758.

As for G24C A32U, the self-cleavage was found to be 0.13.

As for C27A U37G, the self-cleavage worked out at 0.0964.

C3U C15A: the self-cleavage is 0.195.

For the variant A34U A35G, the self-cleavage worked out at 0.191.

For the variant C14A C19U, the self-cleavage came out at 1.07.

In the case of C25G G29C, the self-cleavage came out at 0.109.

In the case of C8U U18G, the self-cleavage was found to be 0.0414.

Take A1C C3A: the self-cleavage amounted to 0.193.

In the case of C20A G44U, the self-cleavage stood at 0.107.

With C19G G29C, the self-cleavage turned out to be 0.0886.

For the variant C9G A40C, the self-cleavage is 0.102.

With C26G G36U, the self-cleavage was determined as 0.0699.

Consider G16A C26U, for which the self-cleavage worked out at 0.107.

As for C3A C27A, the self-cleavage was 0.148.

C46U G47U: the self-cleavage was 1.02.

Take A4C A32G: the self-cleavage was 0.146.

Consider U6A G13U, for which the self-cleavage is 0.129.

As for A2G G43U, the self-cleavage was found to be 0.119.

As for A2G G43C, the self-cleavage came out at 0.122.

In the case of C14U C26A, the self-cleavage was 0.497.

Turning to A2C C25A, the self-cleavage turned out to be 0.0593.

As for C27A A34C, the self-cleavage was determined as 0.0922.

Consider U12A G17C, for which the self-cleavage amounted to 0.114.

Take A35G G41C: the self-cleavage stood at 0.143.

On to G13C C21G, for which the self-cleavage came to 0.0833.

As to G13C C21U, the self-cleavage was determined as 0.0571.

On to G7U U18A, for which the self-cleavage is 0.0251.

In the case of C19U C21G, the self-cleavage was found to be 0.107.

Turning to A1G U31A, the self-cleavage was 0.24.

With U18A U37C, the self-cleavage was determined as 0.0568.

Regarding C15U U37C, the self-cleavage stood at 0.295.

As for C15A G47A, the self-cleavage came to 0.39.

In the case of C27G G43A, the self-cleavage worked out at 0.0971.

For the variant C26G A35C, the self-cleavage amounted to 0.319.

In the case of C26G A35G, the self-cleavage amounted to 0.16.

For the variant A1G A4U, the self-cleavage worked out at 0.235.

Consider G7C G17A, for which the self-cleavage is 0.0642.

G13A A40G: the self-cleavage worked out at 0.185.

For C5G C14G, the self-cleavage is 0.0784.

Regarding A10U, the self-cleavage is 0.982.

On to U18A G43A, for which the self-cleavage was determined as 0.147.

On to A1U A34C, for which the self-cleavage worked out at 0.092.

Take G29U G38U: the self-cleavage is 0.666.

With A4G A35U, the self-cleavage stood at 0.844.

In the case of C26U A30G, the self-cleavage amounted to 0.419.

Regarding U18A C46A, the self-cleavage was 0.252.

For U6A G28U, the self-cleavage was 0.604.

As to C3G G29A, the self-cleavage turned out to be 0.348.

As to C3A A32C, the self-cleavage is 0.188.

On to C14G G24A, for which the self-cleavage amounted to 0.0254.

Consider A22C G24C, for which the self-cleavage was 0.0817.

Regarding A2C G16C, the self-cleavage was found to be 0.0398.

Take G39U G44U: the self-cleavage worked out at 0.164.

Regarding G45U C46G, the self-cleavage stood at 0.52.

Regarding C15U G38U, the self-cleavage came out at 0.76.

Consider A1U A2G, for which the self-cleavage was found to be 0.0622.

As for C14G G41A, the self-cleavage is 0.103.

Turning to A2G A34G, the self-cleavage stood at 0.192.

In the case of C5U A30U, the self-cleavage amounted to 0.752.

As for A1U G45U, the self-cleavage is 0.0565.

On to A2G C9A, for which the self-cleavage was 0.104.

As to C20U G47C, the self-cleavage stood at 0.165.

Regarding C8U G42A, the self-cleavage turned out to be 0.127.

A35U G43U: the self-cleavage was found to be 0.352.

Consider G39A G41A, for which the self-cleavage amounted to 0.153.

For G7C C19A, the self-cleavage worked out at 0.0521.

As to A30G U31G, the self-cleavage was determined as 1.02.

With U6G C46U, the self-cleavage was determined as 0.632.

As for A34C A40C, the self-cleavage turned out to be 0.122.

With A34C A40U, the self-cleavage was 0.0943.

Take C19A G47A: the self-cleavage was 0.139.

As for A11C G17A, the self-cleavage came out at 0.134.

Take A1G A32U: the self-cleavage was 0.459.

For the variant G29A G47A, the self-cleavage was found to be 0.689.

In the case of C26G G47U, the self-cleavage was 0.116.

Consider U18G A34U, for which the self-cleavage was found to be 0.0388.

Turning to A4U A32U, the self-cleavage stood at 0.0867.

Consider A4U A32C, for which the self-cleavage amounted to 0.1.

As to C25G A34U, the self-cleavage amounted to 0.158.

Turning to C5U C8U, the self-cleavage came out at 0.398.

With A34G U37C, the self-cleavage was found to be 0.0836.

For the variant U12G G48U, the self-cleavage was found to be 0.789.

For A10G C25U, the self-cleavage came to 0.874.

For U6G G16U, the self-cleavage was 0.296.

On to U6G G45A, for which the self-cleavage came out at 0.141.

In the case of A10U G16A, the self-cleavage was 0.89.

For the variant U12G G41A, the self-cleavage is 0.658.

Turning to U6C C20G, the self-cleavage came out at 0.0668.

For the variant C21U G29C, the self-cleavage turned out to be 0.0653.

With A32U G45C, the self-cleavage stood at 0.506.

For A23C A32C, the self-cleavage worked out at 0.22.

As for G7C A35G, the self-cleavage was determined as 0.0589.

A32G G36A: the self-cleavage was 0.618.

Consider C14A G42C, for which the self-cleavage was 0.363.

Turning to C21A G28C, the self-cleavage was 0.149.

Turning to C21A G28U, the self-cleavage amounted to 0.129.
